# Test results from article PMC10760395 (2023).
# Where “and” joins values, the source holds several entries; their conditions need not be identical. Identical values can stand only once.
# T1: endothelin B receptor (ETB) (UniProt P24530 27-442)
# T1 chain: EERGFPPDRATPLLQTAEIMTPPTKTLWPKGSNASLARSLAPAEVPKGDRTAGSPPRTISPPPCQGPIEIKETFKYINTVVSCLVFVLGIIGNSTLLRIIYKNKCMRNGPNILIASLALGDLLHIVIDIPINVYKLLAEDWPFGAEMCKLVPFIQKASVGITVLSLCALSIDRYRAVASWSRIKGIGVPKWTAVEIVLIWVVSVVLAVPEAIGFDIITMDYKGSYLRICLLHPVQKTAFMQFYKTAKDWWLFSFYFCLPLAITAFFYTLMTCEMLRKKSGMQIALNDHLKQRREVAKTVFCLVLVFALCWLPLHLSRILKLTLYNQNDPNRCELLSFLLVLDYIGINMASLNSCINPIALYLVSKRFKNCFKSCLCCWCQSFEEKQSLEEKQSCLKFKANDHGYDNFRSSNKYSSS
# B1: xiRB49-P125T (antibody, V domains shown)
# VH: QVQLQQPGAALVKPGASVKLSCKASGYTFISYWMLWVKQRPGRGLEWIGRIDPDSGGTKYNEKFKSKATLTVDKSSSTAYMQLSSLTSEDSAVYYCAREGDYAWFAYWGQGTLVTVSA
# VL: DVLMTQTPLSLPVSLGDQASISCRSSQSIVHSNGNTYLEWYLQKPGQSPKLLIYKVSNRFSGVPDRFSGSGSGTDFTLKISRVEAEDLGVYYCFQGSHVPWTFGGGTKLEIK
# B2: Rendomab B49 (RB49), murine mAb purified from hybridoma (antibody, V domains shown)
# VH: QVQLQQPGAALVKPGASVKLSCKASGYTFISYWMLWVKQRPGRGLEWIGRIDPDSGGTKYNEKFKSKATLTVDKSSSTAYMQLSSLTSEDSAVYYCAREGDYAWFAYWGQGTLVPVSA
# VL: DVLMTQTPLSLPVSLGDQASISCRSSQSIVHSNGNTYLEWYLQKPGQSPKLLIYKVSNRFSGVPDRFSGSGSGTDFTLKISRVEAEDLGVYYCFQGSHVPWTFGGGTKLEIK
# B3: recombinant RB49 (reRB49) (antibody, V domains shown)
# VH: QVQLQQPGAALVKPGASVKLSCKASGYTFISYWMLWVKQRPGRGLEWIGRIDPDSGGTKYNEKFKSKATLTVDKSSSTAYMQLSSLTSEDSAVYYCAREGDYAWFAYWGQGTLVPVSA
# VL: DVLMTQTPLSLPVSLGDQASISCRSSQSIVHSNGNTYLEWYLQKPGQSPKLLIYKVSNRFSGVPDRFSGSGSGTDFTLKISRVEAEDLGVYYCFQGSHVPWTFGGGTKLEIK
# Biological target: T1, endothelin B receptor (ETB)
# Assay: FACS
row,Binder,Kd
1,B1,6 nM
2,B2,4.19 nM and 3.5 nM
3,B3,3.04 nM
